In test [1] the target is T1, LC3B (UniProt Q9GZQ8 1-120). The experiment in a line: ITC. On the technique in general: ITC needs no label: the signal is the heat of the interaction.
Test [2] addresses T1, LC3B. The experiment in a line: ITC; phosphorylated LIR peptide.

Kd data for 2 molecules are collected here from publication PMC10724265 (2023).

Where no end group is shown, it is not given here.

B1: synthetic FAM134C-LIR peptide, non-phosphorylated form (peptide)
chain: LDTDAEGDDFELLDQSELSQ
modifications: synthetic peptide, non-phosphorylated; the exact peptide limits are not printed in the text (figure/supplement); limits taken as the UniProt LIR motif 445-450 plus 7 flanking residues on each side; terminal chemistry unknown
B1: the Kd (in general, the free concentration of one partner at which half of the binding sites on the other are occupied at equilibrium, for simple one-to-one binding) in test [1] came out at 1030 nM.

B2: synthetic FAM134C-LIR peptide, phosphorylated form (peptide)
chain: LDTDAEGDDFELLDQSELSQ
modifications: also: phosphorylated close to the LIR motif, residues not given here
In test [2], B2 yielded a Kd of 180 nM.
